{
  "source": "paper PMC3140635",
  "about": "(2012)",
  "binders": {"B1": {"name": "Glycophorin A TM domain (SNGpATM) TMD (protein)", "chain": "GERVQLAHHFSEPEITLIIFGVMAGVIGTILLISYGIRRLIKKSPSDVKPLPSPDTDVPLSSVEIENPETSDQ"}, "B2": {"name": "Glycophorin A TM domain (SNGpATM) TMD (protein)", "chain": "B1 chain", "modifications": "E. coli inner membrane proteins at mass ratio 1.0"}},
  "key": {"[1]": {"biological_target": "the molecule itself", "assay": "steric trap, PC bilayers, L/P 1400-1600, no IMP"}, "steric trap, PS/PC": {"biological_target": "the molecule itself", "assay": "steric trap, PS/PC"}, "steric trap, PG/PC [2]": {"biological_target": "the molecule itself", "assay": "steric trap, PG/PC"}, "steric trap, DM micelles": {"biological_target": "the molecule itself", "assay": "steric trap, DM micelles"}, "steric trap, PE/PC": {"biological_target": "the molecule itself", "assay": "steric trap, PE/PC"}, "steric trap, PG/PC [3]": {"biological_target": "the molecule itself", "assay": "steric trap, PG/PC", "remark": "listed apart in the source"}, "steric trap, PE/PG/PC": {"biological_target": "the molecule itself", "assay": "steric trap, PE/PG/PC"}, "steric trap": {"biological_target": "the molecule itself", "assay": "steric trap"}, "[4]": {"biological_target": "the molecule itself", "assay": "steric trap, PC bilayers, L/P 1000"}, "steric trap, lysoPC/PC": {"biological_target": "the molecule itself", "assay": "steric trap, lysoPC/PC"}, "steric trap, PG/PC [5]": {"biological_target": "the molecule itself", "assay": "steric trap, PG/PC", "remark": "listed apart in the source"}, "[6]": {"biological_target": "the molecule itself", "assay": "steric trap, E. coli lipid bilayers, L/P 1500"}, "[7]": {"biological_target": "B1", "assay": "steric trap, PC bilayers, L/P 1400-1600"}},
  "data": [
    {"binder": "B1", "values": [
      {"measurement": "Kd", "setting": "[1]", "result": 0.003, "unit": "nM"},
      {"measurement": "Kd", "setting": "steric trap, PS/PC", "result": 25, "unit": "nM"},
      {"measurement": "Kd", "setting": "steric trap, PG/PC [2]", "result": 14, "unit": "nM"},
      {"measurement": "Kd", "setting": "steric trap, DM micelles", "result": 170, "unit": "nM"},
      {"measurement": "Kd", "setting": "steric trap, PE/PC", "result": 0.00021, "unit": "nM"},
      {"measurement": "Kd", "setting": "steric trap, PG/PC [3]", "result": 47, "unit": "nM"},
      {"measurement": "Kd", "setting": "steric trap, PE/PG/PC", "result": 5.1, "unit": "nM"},
      {"measurement": "Kd", "setting": "steric trap", "result": 11, "unit": "nM"},
      {"measurement": "Kd", "setting": "[4]", "result": 0.0015, "unit": "nM"},
      {"measurement": "Kd", "setting": "steric trap, lysoPC/PC", "result": 6, "unit": "nM"},
      {"measurement": "Kd", "setting": "steric trap, PG/PC [5]", "result": 32, "unit": "nM"},
      {"measurement": "Kd", "setting": "[6]", "result": 10, "unit": "nM"}
    ]},
    {"binder": "B2", "values": [
      {"measurement": "Kd", "setting": "[7]", "result": 9.2, "unit": "nM"}
    ]}
  ]
}
